Data taken from patent US10488411B2, “Inflammasome activation in myelodysplastic syndromes” (H. LEE MOFFITT CANCER CENTER AND RESEARCH INSTITUTE, INC., priority 2015, dated 2019).

Key:
[1] = test system: MDS BM-MNC; assay: Pyroptosis flow cytometry panel (a-caspase-1+/annexin-V+) in MDS BM-MNC incubated with autologous BM plasma; assay type: cell-based, human
Protocol: Pyroptosis flow cytometry panel. For human samples, treated and untreated BM-MNC were incubated overnight in IMDM, supplemented with 10% autologous BM plasma. Subsequently, cells were harvested, washed twice in 1×PBS, and stained with LIVE/DEAD Violet fluorescent reactive dye according to the manufacturer's protocol (Life Technologies). Cells were resuspended in 1×PBS with 2% BSA, and incubated at room temperature for 15 minutes to block non-specific binding. After washing, cells were stained with 30× FAM-FLICA® Caspase-1 and Caspase-3/7 solution at a ratio of 1:30 for 2 hours at 37° C. Cells were washed and stained for cell surface receptors using CD38:PE-CF594, CD33:BV711, CD34:APC (BD Biosciences), and CD71:PE-Cyanine7 (eBioscience). All antibodies were diluted 1:20, and cells were stained for 30 minutes at 4° C. Cells were washed, resuspended in 1× binding buffer, and stained with Annexin-V:Cy5.5 at a dilution of 1:20 for 15 minutes at room temperature (BD Biosciences). 1× binding buffer was added to a final volume of 400 μL. Sample acquisitions were carried out using a BD LSR II flow cytometer and FACSDiva software (BD Biosciences). Calibration of the flow cytometer was carried out prior to each experiment using Rainbow Mid-Range Fluorescent Particles (BD Biosciences). To establish fluorescence compensation settings, ArC Amine Reactive Compensation Beads were used for LIVE/DEAD Violet staining (Life Technologies), and BD CompBead Plus Anti-Mouse Ig κ/Negative Control (BSA) Compensation Plus Particles were used for surface receptor conjugates (BD Biosciences). Data were analyzed using FlowJo 9.7.5 software (FlowJo, LLC, Ashland, Oreg.).

[2] = test system: pyroptosis-related gene expression; assay: qPCR of pyroptosis-related gene expression in lower-risk MDS BM-MNC; assay type: cell-based, human; details: lower-risk MDS BM-MNC (n=5), 24 hours, versus autologous BM plasma alone
Protocol: Real-time quantitative PCR. RNA was isolated from BM-MNC using the RNeasy Mini Kit (Qiagen). cDNA was produced using the iScript cDNA Synthesis Kit (Bio-Rad). Sequences for primers can be found in Table 1. GAPDH mRNA was used for transcript normalization. cDNA was amplified using the iQ SYBR Green Supermix and the CFX96 Real-Time PCR Detection System (Bio-Rad). PCR conditions were as follows: 10 minutes at 95° C., followed by 40 cycles of amplification (15 seconds at 95° C. and 1 minute at 60° C.). Relative gene expression was calculated using the −2^ΔΔCt method.

B1: CD33-IgG1: S100A9 high-affinity chimeric (CD33-IgG1) decoy receptor (protein)
chain: DPNFWLQVQESVTVQEGLCVLVPCTFFHPIPYYDKNSPVHGYWFREGAIISRDSPVATNKLDQEVQEETQGRFRLLGDPSRNNCSLSIVDARRRDNGSYFFRMERGSTKYSYKSPQLSVHVTDLTHRPKILIPGTLEPGHSKNLTCSVSWACEQGTPPIFSWLSAAPTSLGPRTTHSSVLIITPRPQDHGTNLTCQVKFAGAGVTTERTIQLNVTYVPQNPTTGIFPGDGSGKQETRAGVVH
modifications: left off: a dimerising Fc or GST
**Q.** For B1, which “reduction of fraction of pyroptotic cells, maximum lineage-specific change, CD33+ cells” value ([1]; CD33+ immature myeloids, 0.5 μg CD33-IgG1 or 0.1 μM IRAK4 inhibitor, 24 hours, autologous BM plasma) is on record?
**A.** The value was 68%.

**Q.** What about the “reduction of fraction of pyroptotic cells, maximum lineage-specific change, CD71+ cells” value ([1]; CD71+ erythroids, 0.5 μg CD33-IgG1 or 0.1 μM IRAK4 inhibitor, 24 hours, autologous BM plasma) of the same molecule?
**A.** Its value is 64%.

**Q.** And the “fraction of pyroptotic cells across all lineages studied” value ([1]; MDS BM-MNC (n=4) with autologous BM plasma, 0.5 μg CD33-IgG1 or 0.1 μM IRAK4 inhibitor, 24 hours)?
**A.** Its value is “marked reduction”.

**Q.** And the “reduction of fraction of pyroptotic cells, maximum lineage-specific change, progenitor cells” value ([1]; progenitor cells (CD34+CD38+), 0.5 μg CD33-IgG1 or 0.1 μM IRAK4 inhibitor, 24 hours, autologous BM plasma)?
**A.** Its value is 23%.

**Q.** What about the MDSC fraction ([1]; short-term treatment of MDS BM-MNC) of the same molecule?
**A.** Its MDSC fraction is “significantly reduced”.

**Q.** And the “reduction of fraction of pyroptotic cells, maximum lineage-specific change, stem cells” value ([1]; stem cells (CD34+CD38-), 0.5 μg CD33-IgG1 or 0.1 μM IRAK4 inhibitor, 24 hours, autologous BM plasma)?
**A.** Its value is 44%.

**Q.** And the CASP3 expression [2]?
**A.** The CASP3 expression was “markedly reduced”.

**Q.** And the “expression of CASP1” value [2]?
**A.** Its value is “reduced”.

**Q.** What about the “expression of IL-1β” value [2] of the same molecule?
**A.** The value was “reduced”.

**Q.** What about the “expression of IL-18” value [2] of the same molecule?
**A.** Its value is “reduced”.

**Q.** What about the “expression of NLRP3” value [2] of the same molecule?
**A.** Its value is “reduced”.
